Measurements as given in paper PMC6929975, “A supramolecular protein chaperone for vaccine delivery” (Theranostics, 2020).
Starred links: 1 amine or outer side, 2 acyl side, 3 side chain; linkers in the order of their positions; H or OH if unused. Non-standard residues stand in square brackets, D forms with d. Groups on a side chain read outwards from the residue. *: point of attachment. Fbp = flurbiprofen, CC(C(=O)*)c1ccc(-c2ccccc2)c(F)c1; γGlu = O=C(O)[C@H](CCC(=O)[*:2])N[*:1]

How the values were obtained:
[1] = biological target: Hepatitis B surface antigen (hepatitis B virus, UniProt P03138 1-389, fluorescent dye NT-647 (cysteine-reactive Monolith NT Protein Labelling Kit)); test: MST; proteins labelled with NT-647 held at constant concentration; Comp. 1 or 2 varied from 0.25 μM to 10 mM; PBS with 0.05% Tween-20, pH 7.4; Monolith NT.115, standard glass capillaries; conditions: both partners purified
[2] = biological target: T1, ovalbumin (UniProt P01012 1-386, fluorescent dye NT-647 (cysteine-reactive Monolith NT Protein Labelling Kit)); test: as above; conditions: both partners purified
T1 construct: source: bought: InvivoGen (endotoxin free)
T1 sequence (looked up): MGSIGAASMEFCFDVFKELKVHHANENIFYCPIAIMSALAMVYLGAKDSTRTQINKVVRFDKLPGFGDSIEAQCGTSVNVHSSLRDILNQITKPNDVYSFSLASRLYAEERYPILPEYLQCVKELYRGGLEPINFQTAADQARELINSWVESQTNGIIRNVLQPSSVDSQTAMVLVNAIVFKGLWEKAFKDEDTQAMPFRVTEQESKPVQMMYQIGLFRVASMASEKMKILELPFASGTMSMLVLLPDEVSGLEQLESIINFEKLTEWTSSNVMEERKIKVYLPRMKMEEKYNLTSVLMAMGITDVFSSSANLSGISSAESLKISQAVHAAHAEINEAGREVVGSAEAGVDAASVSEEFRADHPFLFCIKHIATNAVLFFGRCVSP

B1: Fbp-G^DF^DF^DY^DK(γE)2-NH2 (peptide)
peptide: Fbp-G[dF][dF][dY][dK]([γGlu-γGlu])-NH2
SMILES: CC(C(=O)NCC(=O)N[C@H](Cc1ccccc1)C(=O)N[C@H](Cc1ccccc1)C(=O)N[C@H](Cc1ccc(O)cc1)C(=O)N[C@H](CCCCNC(=O)CC[C@H](NC(=O)CC[C@H](N)C(=O)O)C(=O)O)C(N)=O)c1ccc(-c2ccccc2)c(F)c1
notes: also called Comp; supramolecular protein chaperone; source: synthetic peptide (Fmoc SPPS on Rink resin, purified by HPLC)
[1]
  Kd: 68 µM
[2]
  Kd: 83.3 µM
